These results are taken from patent publication US20230295310A1 (ABCELLERA BIOLOGICS, published 2023).

The assay concerns the target EGFR on HeLa cells (UniProt P00533 25-1210, limits assumed). Kind of assay: cell-based or functional assay.

B1: GOMP001_bsAb_011 (bispecific antibody, human IgG1, kappa, L234A L235A)
heavy 1: QVQLVQSGAEVKKPGASVKVSCKASGYTFTSHWMHWVRKAPGQGLEWIGEFNPSNGRTNYNEEFKSKATMTVDTSTNTAYMELSSLRSEDTAVYYCASRDYDYDGRYFDYWGQGTLVTVSSASTKGPSVFPLAPSSKSTSGGTAALGCLVADYFPEPVTVSWNSGALTSGVHTFPAVLQSSGLYSLSSVVTVPSSSLGTQTYICNVNHKPSNTKVDEKVEPKSCDKTHTCPPCPAPEAAGGPSVFLFPPKPKDTLMISRTPEVTCVVVDVSHEDPEVKFNWYVDGVEVHNAKTKPREEQYNSTYRVVSVLTVLHQDWLNGKEYKCKVSNKALPAPIEKTISKAKGQPREPQVYTLPPSREEMTDNQVSLTCLVKGFYPSDIAVEWESNGQPENNYKTTPPVLMSDGSFFLASKLTVDKSRWQQGNVFSCSVMHEALHNHYTQKSLSLSPG
light 1: RIQMTQSPSSLSASVGDRVTITCSASSSVTYMYWYQDKPGKAPKLLIYDTSNLASGVPSRFSGSGSGTDYTFTISSLQPEDIATYYCQQWSSHIFTFGQGTKVEIKRTVAAPSVFIFPPSDKQLKSGTARVVCLLNNFYPREAKVQWKVDNALQSGNSQESVTEQDSKDSTYSLSSTLTLSKADYEKHKVYACEVTHQGLSSPVTKSFNRGEC
heavy 2: EVQLVESGGGLVQPGGSLRLSCAASGFTLSSYTMNWVRYAPGKGLEWVSYISSSSRTIYYSDRVKGRFSISRDNAKNSLYLQMNSLRDEDTALYYCAREDYYDSSGFDNWGRGTLVTVSSASTKGPSVFPLAPSSKSTSGGTAALGCLVKDYFPEPVTVSWNSGALTSGVHTFPAVLQSSGLYSLSSVVTVPSSSLGTQTYICNVNHKPSNTKVDKKVEPKSCDKTHTCPPCPAPEAAGGPSVFLFPPKPKDTLMISRTPEVTCVVVDVSHEDPEVKFNWYVDGVEVHNAKTKPREEQYNSTYRVVSVLTVLHQDWLNGKEYKCKVSNKALPAPIEKTISKAKGQPRRPRVYTLPPSREEMTKNQVSLVCLVKGFYPSDIAVEWESNGQPENNYKTTPPVLDSDGSFFLYSVLTVDKSRWQQGNVFSCSVMHEALHNHYTQKSLSLSPG
light 2: DIRMTQSPSSFSASTGDRVTITCRASQGISSYLAWYQRKPGDAPKLLIYTASTLQSGVPSRFSGSGSGTDFTLTIRSLQSEDFATYYCQQYYSYPRTFGQGTKVEIKRTVAAPSVFIFPPSDEQLKSGTASVVCLLNNFYPREAKVQWKVDNALQSGNSQESVTEQDSKDSTYSLSSTLTLSKADYEKHKVYACEVTHQGLSSPVTKSFNRGEC
On to B1, for which the Max killing % came to 77.8% and the “X… HeLa EC50” value is 0.0693 nM.

B2: GOMP001_bsAb_013 (bispecific antibody, human IgG1, kappa, L234A L235A)
heavy 1: QVQLVQSGAEVKKPGASVKVSCKASGYTFTSHWMHWVRKAPGQGLEWIGEFNPSNGRTNYNEEFKSKATMTVDTSTNTAYMELSSLRSEDTAVYYCASRDYDYDGRYFDYWGQGTLVTVSSASTKGPSVFPLAPSSKSTSGGTAALGCLVADYFPEPVTVSWNSGALTSGVHTFPAVLQSSGLYSLSSVVTVPSSSLGTQTYICNVNHKPSNTKVDEKVEPKSCDKTHTCPPCPAPEAAGGPSVFLFPPKPKDTLMISRTPEVTCVVVDVSHEDPEVKFNWYVDGVEVHNAKTKPREEQYNSTYRVVSVLTVLHQDWLNGKEYKCKVSNKALPAPIEKTISKAKGQPREPQVYTLPPSREEMTDNQVSLTCLVKGFYPSDIAVEWESNGQPENNYKTTPPVLMSDGSFFLASKLTVDKSRWQQGNVFSCSVMHEALHNHYTQKSLSLSPG
light 1: RIQMTQSPSSLSASVGDRVTITCSASSSVTYMYWYQDKPGKAPKLLIYDTSNLASGVPSRFSGSGSGTDYTFTISSLQPEDIATYYCQQWSSHIFTFGQGTKVEIKRTVAAPSVFIFPPSDKQLKSGTARVVCLLNNFYPREAKVQWKVDNALQSGNSQESVTEQDSKDSTYSLSSTLTLSKADYEKHKVYACEVTHQGLSSPVTKSFNRGEC
heavy 2: QVQLVQSGAEVKKPGASVKVSCKASGYTFTSYDINWVRYATGQGLEWMGWMNPKSGKTGYAQKFQGRITMTRNTPISTVYMDLSSLRSEDTAVYYCAREGHYDFWTGYYSFDYWGRGTLVTVSSASTKGPSVFPLAPSSKSTSGGTAALGCLVKDYFPEPVTVSWNSGALTSGVHTFPAVLQSSGLYSLSSVVTVPSSSLGTQTYICNVNHKPSNTKVDKKVEPKSCDKTHTCPPCPAPEAAGGPSVFLFPPKPKDTLMISRTPEVTCVVVDVSHEDPEVKFNWYVDGVEVHNAKTKPREEQYNSTYRVVSVLTVLHQDWLNGKEYKCKVSNKALPAPIEKTISKAKGQPRRPRVYTLPPSREEMTKNQVSLVCLVKGFYPSDIAVEWESNGQPENNYKTTPPVLDSDGSFFLYSVLTVDKSRWQQGNVFSCSVMHEALHNHYTQKSLSLSPG
light 2: DIQMTQSPSSLSASVGDRVTITCRASQGIRNDLGWYQRTPGDAPKRLIYAASSLQSGVPSRFSGSGSGTEFTLTISSLQPEDFATYYCLQHYSYPYTFGQGTKLEIKRTVAAPSVFIFPPSDEQLKSGTASVVCLLNNFYPREAKVQWKVDNALQSGNSQESVTEQDSKDSTYSLSSTLTLSKADYEKHKVYACEVTHQGLSSPVTKSFNRGEC
B2: the Max killing % came out at 80.8% and the “X… HeLa EC50” value was 0.668 nM.

B3: GOMP001_bsAb_012 (bispecific antibody, human IgG1, kappa, L234A L235A)
heavy 1: EVQLVESGGGLVQPGGSLRLSCAASGFTLSSYTMNWVRKAPGKGLEWVSYISSSSRTIYYSDEVKGRFSISRDNAKNSLYLQMNSLRDEDTALYYCAREDYYDSSGFDNWGQGTLVTVSSASTKGPSVFPLAPSSKSTSGGTAALGCLVADYFPEPVTVSWNSGALTSGVHTFPAVLQSSGLYSLSSVVTVPSSSLGTQTYICNVNHKPSNTKVDEKVEPKSCDKTHTCPPCPAPEAAGGPSVFLFPPKPKDTLMISRTPEVTCVVVDVSHEDPEVKFNWYVDGVEVHNAKTKPREEQYNSTYRVVSVLTVLHQDWLNGKEYKCKVSNKALPAPIEKTISKAKGQPREPQVYTLPPSREEMTDNQVSLTCLVKGFYPSDIAVEWESNGQPENNYKTTPPVLMSDGSFFLASKLTVDKSRWQQGNVFSCSVMHEALHNHYTQKSLSLSPG
light 1: RIRMTQSPSSFSASTGDRVTITCRASQGISSYLAWYQDKPGKAPKLLIYTASTLQSGVPSRFSGSGSGTDFTLTIRSLQSEDFATYYCQQYYSYPRTFGQGTKVEIKRTVAAPSVFIFPPSDKQLKSGTARVVCLLNNFYPREAKVQWKVDNALQSGNSQESVTEQDSKDSTYSLSSTLTLSKADYEKHKVYACEVTHQGLSSPVTKSFNRGEC
heavy 2: QVQLVQSGAEVKKPGASVKVSCKASGYTFTSHWMHWVRYAPGQGLEWIGEFNPSNGRTNYNEKFKSKATMTVDTSTNTAYMELSSLRSEDTAVYYCASRDYDYDGRYFDYWGRGTLVTVSSASTKGPSVFPLAPSSKSTSGGTAALGCLVKDYFPEPVTVSWNSGALTSGVHTFPAVLQSSGLYSLSSVVTVPSSSLGTQTYICNVNHKPSNTKVDKKVEPKSCDKTHTCPPCPAPEAAGGPSVFLFPPKPKDTLMISRTPEVTCVVVDVSHEDPEVKFNWYVDGVEVHNAKTKPREEQYNSTYRVVSVLTVLHQDWLNGKEYKCKVSNKALPAPIEKTISKAKGQPRRPRVYTLPPSREEMTKNQVSLVCLVKGFYPSDIAVEWESNGQPENNYKTTPPVLDSDGSFFLYSVLTVDKSRWQQGNVFSCSVMHEALHNHYTQKSLSLSPG
light 2: DIQMTQSPSSLSASVGDRVTITCSASSSVTYMYWYQRKPGDAPKLLIYDTSNLASGVPSRFSGSGSGTDYTFTISSLQPEDIATYYCQQWSSHIFTFGQGTKVEIKRTVAAPSVFIFPPSDEQLKSGTASVVCLLNNFYPREAKVQWKVDNALQSGNSQESVTEQDSKDSTYSLSSTLTLSKADYEKHKVYACEVTHQGLSSPVTKSFNRGEC
Regarding B3, the Max killing % came to 93.3% and the “X… HeLa EC50” value came to 0.0395 nM.
